Laboratory results as given in paper PMC12095048 (Oncogene, 2025).
One block for each binder: values may come before it.

Assays:
[1] = molecular target: His-CHK2 (WT), full length (UniProt O96017 1-543); experiment: pull-down
[2] = molecular target: His-HIF-1α (WT), full length (UniProt Q16665 1-826); experiment: pull-down
Sequence of His-HIF-1α (WT), full length (Q16665 whole entry): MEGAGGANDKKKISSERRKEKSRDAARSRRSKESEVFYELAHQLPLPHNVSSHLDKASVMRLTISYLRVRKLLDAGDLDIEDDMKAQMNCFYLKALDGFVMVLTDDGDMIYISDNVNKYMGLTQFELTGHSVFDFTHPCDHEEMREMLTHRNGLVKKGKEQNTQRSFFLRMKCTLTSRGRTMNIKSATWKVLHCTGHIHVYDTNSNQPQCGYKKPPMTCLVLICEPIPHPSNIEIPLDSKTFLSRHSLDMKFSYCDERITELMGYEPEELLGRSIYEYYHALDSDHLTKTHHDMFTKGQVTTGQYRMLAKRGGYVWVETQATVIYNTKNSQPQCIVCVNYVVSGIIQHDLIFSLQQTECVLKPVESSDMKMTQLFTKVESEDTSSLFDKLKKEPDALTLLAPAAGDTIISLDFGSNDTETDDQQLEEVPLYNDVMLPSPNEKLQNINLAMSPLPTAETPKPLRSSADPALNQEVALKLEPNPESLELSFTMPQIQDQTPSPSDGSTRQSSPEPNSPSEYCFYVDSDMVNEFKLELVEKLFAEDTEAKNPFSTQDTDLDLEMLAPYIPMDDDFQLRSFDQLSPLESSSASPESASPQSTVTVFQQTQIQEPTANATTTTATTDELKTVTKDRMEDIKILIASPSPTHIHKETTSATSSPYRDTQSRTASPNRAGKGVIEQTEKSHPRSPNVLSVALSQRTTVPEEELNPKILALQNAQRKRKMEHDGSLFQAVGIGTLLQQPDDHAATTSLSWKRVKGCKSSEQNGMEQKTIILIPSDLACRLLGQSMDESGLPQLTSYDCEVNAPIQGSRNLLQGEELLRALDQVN

binding result [1]: binds
B1: GST-HIF-1α (aa 400–575) (domain or fragment, UniProt Q16665 400-575, looked up)
chain: LAPAAGDTIISLDFGSNDTETDDQQLEEVPLYNDVMLPSPNEKLQNINLAMSPLPTAETPKPLRSSADPALNQEVALKLEPNPESLELSFTMPQIQDQTPSPSDGSTRQSSPEPNSPSEYCFYVDSDMVNEFKLELVEKLFAEDTEAKNPFSTQDTDLDLEMLAPYIPMDDDFQLR

binding result [1]: binds
B2: GST-HIF-1α (aa 81–200) (domain or fragment)
chain: not shown

binding result [2]: binds
B3: GST-CHK2 (aa 1–193) (domain or fragment, UniProt O96017 1-193, looked up)
chain: MSRESDVEAQQSHGSSACSQPHGSVTQSQGSSSQSQGISSSSTSTMPNSSQSSHSSSGTLSSLETVSTQELYSIPEDQEPEDQEPEEPTPAPWARLWALQDGFANLECVNDNYWFGRDKSCEYCFDEPLLKRTDKYRTYSKKHFRIFREVGPKNSYIAYIEDHSGNGTFVNTELVGKGKRRPLNNNSEIALSL
